Laboratory results as given in the supplement of paper PMC12042874.
± gives the uncertainty stated by the source.

Experiment: amyloid nucleation score (Sup35N fusion, yeast selection) (log enrichment); library NNK1; higher = more nucleation; inactive = no reads after selection
Procedure, shortened: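 The nucleation score, computed with DiMSum, is the log enrichment of output over input reads, centred on the mode score of non-aggregating sequences. Sequences with under 100 input reads were dropped. Reads were generated by Illumina sequencing of plasmid inserts from psi-negative yeast with Sup35N fused to peptides of 20 random codons, induced with 100 μM copper sulfate for 24 hours and grown 7 days at 30°C on medium lacking adenine and uracil.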

Substance	amyloid nucleation score
SFYYWHPIALVSMVYK	5.89 ± 0.073
SGAYATVPVYQEWLSQIKLL	0.327 ± 1
SGCGTGKVDVNWGLENAKAG	0.408 ± 0.59
SGDIKSFWMERCFCLVTHGK	-0.115 ± 0.57
SGDSSYIMLLVVAPMYCQLP	-0.148 ± 0.83
SGGSEELLRVVMVSSMKGPW	-0.254 ± 0.81
SGHNSLGFISGIAINIFYRE	7.537 ± 0.069
SGHRFCAVRSRATGERFYGW	inactive
SGLIKVGISLRLHYGLYLRY	0.684 ± 0.88
SGPFSTYMTRFFLDFGSVDC	-1.71 ± 2.4
SGPRRQIDAIMFRGL	-0.086 ± 1.2
SGQTYGNFFGEAFWYECA	0.19 ± 1.4
SGTTRWCRGGV	0.127 ± 0.74
SGVVTCVVFL	5.38 ± 0.066
SGWIKIFG	-0.293 ± 0.66
SGYLRKRYTRRDC	inactive
SGYSLASVVILLKAVYCLGW	0.627 ± 0.72
SGYWAPINLTGVMDS	0.053 ± 1.1
SHADVR	-0.027 ± 0.83
SHIFRWNTCRMEIRWYNQYY	1.14 ± 0.71
SHVGSYSWVCSRLARIGCER	-0.703 ± 0.46
SHYNNNHSAGWLLQLFTMAC	0.05 ± 0.88
SIFADGLVVGLGPSLYSVFF	0.175 ± 0.54
SIGLC	1.31 ± 0.76
SILMWLNLARSLGTIYLLFV	0.046 ± 0.76
SILVRVSVR	0.444 ± 1.2

Substance	amyloid nucleation score
SIMNISVAYCGSM	3.67 ± 0.14
SIQLGSFWSGCEICCDYPPA	-0.805 ± 0.67
SIRLPVIKRSRL	-0.109 ± 0.66
SIRLREL	1.61 ± 0.76
SIRWVIHDRVSRVYDVLRCG	0.944 ± 0.54
SIYYKARSEWSMASAIDGYV	0.85 ± 0.72
SKDKGSTLGTSNLGRDGSWK	0.5 ± 0.45
SKDYVDL	inactive
SKEESPMTFVWILGGHSELS	-0.448 ± 0.32
SKICLMSIYHLQLDPFIGMP	3.03 ± 0.17
SKLFLGGLPCTQYWPRMCMV	-0.356 ± 0.64
SKLTYLTMPSVGEIHFWNPM	3.44 ± 0.18
SKMCY	-0.692 ± 0.43
SKSRMLPIGTRGCRNSQFVE	1.06 ± 0.63
SKYLCNMLPISDLHMGQTFN	-0.391 ± 0.44
SLDEVARVLCP	-0.21 ± 0.58
SLGIHPHVDKLLYRRFQLDY	-0.567 ± 0.77
SLGLFKIIRKPYHCSAPSQA	0.551 ± 0.47
SLIRLCVAVTSTSNPGWPLL	3.09 ± 0.12
SLKCSNGR	0.49 ± 0.3
SLLCYRRGSWGEYIMFNGRL	-0.366 ± 0.84
SLLRARIKVVPV	-1.46 ± 1.6
SLMFTPEYCVED	1.41 ± 0.69
SLNAMFIFLLAYKRGVYEYM	1.25 ± 0.24
SLNKRWCLRTQFGVAMVRTP	0.416 ± 0.99
SLPVLCASRYHLHYRMGFSG	1 ± 0.69

Substance	amyloid nucleation score
SLRLFEFFWLTFGSSQIHLA	-0.032 ± 0.5
SLRSQCGSVNLIFMVMFSVW	-0.236 ± 1.2
SLSRMVGCTTVF	inactive
SLVALINNCSVSTKMGSLPY	0.87 ± 0.22
SLVLDGVSTPPIDYLNLVLV	-1.26 ± 0.76
SLVLRRLYEVSVTCTAGNAW	0.094 ± 0.98
SLVMGVYRRQCRGNPRAMSK	1.21 ± 0.44
SLYDLTDTAICFAFFYFD	7.95 ± 0.082
SLYMT	0.192 ± 0.34
SLYRDYVRFGWLVRCGNGHD	0.078 ± 0.23
SMAPGDSS	0.02 ± 0.34
SMCLCVYIWIALYGWVMLIP	0.217 ± 0.21
SMDLHMYSKFMRYSVFVCNL	1.14 ± 0.79
SMLRCLY	0.758 ± 0.85
SMLRNTNLNAIPKFTVSFVL	-0.021 ± 0.69
SMVRYTMDSKVKKRSSVVVG	3.56 ± 0.18
SNAPFRKAQQRGLYKWWSWR	0.728 ± 0.54
SNDVAFMAIKKHRTLSYQTD	0.165 ± 0.47
SNEVEGLFLKLYNFVPVRQW	0.148 ± 0.26
SNEVVKFKWSCIPETCSRVW	0.429 ± 0.61
SNIWSSKKINTCLGM	1.7 ± 0.16
SNKRNYRLE	0.401 ± 0.62
SNLLPLYP	0.263 ± 1.1
SNLRMLNMASTSPR	-0.368 ± 0.34
SNLWFL	-0.213 ± 0.28
SNMLHWSVRMGHGWW	0.184 ± 1

Substance	amyloid nucleation score
SNPTYLWVVLLVRSAALRMD	inactive
SNRFFVPRA	-0.334 ± 0.5
SNSAFCNGSVMCVEVSLRHA	7.037 ± 0.062
SNSMLISYSCEFTWGVGKVL	0.242 ± 0.4
SNTICQVGASREEPSCGTQW	1.14 ± 0.97
SNVMWFYSWMWVRVTRRTCL	1.71 ± 0.49
SNWTPCQSESP	-0.311 ± 0.55
SNWYRPTDAARLSLSYSRGG	-0.883 ± 1.1
SPFDKIVAHGSRLML	-0.274 ± 0.64
SPLFLVWLTCYKQDPFILVW	inactive
SPNCM	-0.358 ± 1.4
SPSYQRCLQMLEKIWKDLNH	0.497 ± 0.31
SPTVERSTGIR	-0.089 ± 0.49
SPVESQNSNNRLTIMDLIMR	0.574 ± 0.97
SPVLIDVRGM	-0.413 ± 0.5
SQCELWGCSCTPYNRMFSGN	inactive
SQIYTFVDLFLSS	1.26 ± 0.68
SQMLELVFK	0.818 ± 0.75
SQVGYGSRDLEFTWWCGGNG	-0.278 ± 0.58
SRATSYKFSTGRCCWTGTVK	0.072 ± 0.91
SRCLMRMTAPQVQEGACAVC	-0.268 ± 0.38
SRDRNLVGLKLHVTVNKDVF	-1.41 ± 2.4
SRFWKRVHAYTAVISEMYSA	-0.132 ± 0.52
SRIFCTWPVSVIYNRADSAQ	0.838 ± 0.56
SRKCGDVCSKDGRPVCPGTE	1.67 ± 0.15
SRLATQTRLKMAGSISLFRS	-0.208 ± 1.2

Substance	amyloid nucleation score
SRLSQDPRTSSAIMSWLRYS	0.886 ± 1.1
SRNLCSQSWIRTATV	0.585 ± 0.56
SRNLLPSDTSHQVMYPVSTK	0.568 ± 0.28
SRPNDMFTALVYTCYLPNK	-0.539 ± 0.6
SRQRSYRDWVATFTF	-0.339 ± 0.52
SRRNYWVFGGHMFND	-0.134 ± 1.7
SRRVQLYVLGFRGIKSGTFL	-0.066 ± 0.62
SRSIRSYDPWMVCMSMWLSD	1.13 ± 0.9
SRSRRANYGLCDIRYYNSFE	0.862 ± 0.43
SRTGRH	0.972 ± 0.93
SRTHRDGTCYHSGTVKVHLP	-1.64 ± 2.7
SRTICGSEILTSKKTRFHAS	-0.702 ± 1.7
SRTVFGCEDIRERRWVFWEI	0.647 ± 0.69
SRTYFESRDFEEYRAMRPSL	inactive
SRTYPVDMFPMSLKLSINVL	-0.125 ± 0.79
SRVQYLILDIMVTRYGASTS	-0.262 ± 0.53
SRYYLSRPVLRYG	0.546 ± 0.42
SSCKCRCGFD	-0.699 ± 0.67
SSCYDRVLYAPDRRR	1.23 ± 0.45
SSGAYSLSKWYQYRMFSVVL	-0.771 ± 0.66
SSGFYLWCALYRSRGHCNDY	1.6 ± 0.18
SSGVFTSI	-0.042 ± 0.66
SSITVITVATQVEYNTVHDF	1.37 ± 0.45
